Data taken from patent publication US20190153111A1 (Novartis, published 2019).
Where “and” joins values, the source holds several entries; their conditions need not be identical. Identical values can stand only once.

Columns and labels:
Assay in all cases: cell-based or functional assay
human CD40 on cells [1] = biological target: T1, human CD40 on cells (human, UniProt P25942 21-277)
human CD40 on cells [2] = biological target: T1, human CD40 on cells; remark: listed apart in the source
[3] = biological target: rhesus monkey CD40 on cells (rhesus, UniProt F6SNI1 21-278)
[4] = biological target: cynomolgus monkey CD40 on cells (cynomolgus, UniProt G7PG38 21-278)
human CD40 on cells [5] = biological target: T1, human CD40 on cells; remark: listed apart in the source

T1 sequence (P25942 21-277 limits assumed): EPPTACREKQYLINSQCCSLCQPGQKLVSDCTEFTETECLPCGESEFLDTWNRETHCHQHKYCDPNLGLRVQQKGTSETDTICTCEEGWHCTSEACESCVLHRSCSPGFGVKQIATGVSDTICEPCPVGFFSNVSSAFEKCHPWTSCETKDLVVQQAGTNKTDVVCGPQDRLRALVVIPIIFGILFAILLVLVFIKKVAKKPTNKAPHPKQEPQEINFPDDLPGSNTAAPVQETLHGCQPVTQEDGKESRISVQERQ

IC50, inhibition of rCD154-induced TNF production by primary monocyte-derived dendritic cells (human CD40 on cells [1]): 0.04 µg/ml and 0.27 nM
IC50, inhibition of rCD154-induced proliferation of human PBMCs (human CD40 on cells [1]): 0.12 nM
IC50, inhibition of rCD154-induced proliferation of human whole blood cultures (human CD40 on cells [1]): 0.024 µg/ml and 0.16 nM
IC50, inhibition of rCD154-induced proliferation of purified human tonsillar B cells (human CD40 on cells [1]): 0.071 µg/ml and 0.47 nM
IC50 (read off the curve): inhibition of rCD154-induced CD69 expression on CD20pos B cells, human whole blood (human CD40 on cells [2]): ~0.1 µg/mL
Inhibition of rCD154-induced proliferation (IC50 PBMCs), rhesus [3]: 0.026 µg/ml and 0.18 µM
Inhibition of rCD154-induced proliferation (IC50 PBMCs), cynomolgus [4]: 0.01 µg/ml and 0.07 µM
Inhibition of rCD154-induced proliferation (IC50 PBMCs), human (human CD40 on cells [5]): 0.017 µg/ml and 0.12 µM
B1: CFZ533 (antibody, human IgG1, kappa, N297A)
heavy: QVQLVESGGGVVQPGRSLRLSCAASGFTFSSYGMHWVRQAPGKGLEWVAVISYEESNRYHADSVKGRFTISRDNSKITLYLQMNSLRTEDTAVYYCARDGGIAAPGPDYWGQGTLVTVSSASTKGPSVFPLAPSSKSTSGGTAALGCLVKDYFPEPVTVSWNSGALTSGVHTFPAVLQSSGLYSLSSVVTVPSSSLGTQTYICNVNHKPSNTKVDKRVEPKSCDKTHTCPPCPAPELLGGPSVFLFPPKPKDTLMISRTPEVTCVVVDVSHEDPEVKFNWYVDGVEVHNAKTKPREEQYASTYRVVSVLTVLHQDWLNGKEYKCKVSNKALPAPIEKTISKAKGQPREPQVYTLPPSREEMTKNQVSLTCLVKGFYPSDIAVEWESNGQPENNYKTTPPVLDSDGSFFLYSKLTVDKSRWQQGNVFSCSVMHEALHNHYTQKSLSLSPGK
light: DIVMTQSPLSLTVTPGEPASISCRSSQSLLYSNGYNYLDWYLQKPGQSPQVLISLGSNRASGVPDRFSGSGSGTDFTLKISRVEAEDVGVYYCMQARQTPFTFGPGTKVDIRRTVAAPSVFIFPPSDEQLKSGTASVVCLLNNFYPREAKVQWKVDNALQSGNSQESVTEQDSKDSTYSLSSTLTLSKADYEKHKVYACEVTHQGLSSPVTKSFNRGEC
